Data on 1 substance can be found in patent publication US20190085092A1.

The target in the experiment is STn expressing TAG-72 glycoprotein (human tumor-associated glycoprotein 72) (human) (UniProt Q01973). Nature of the experiment: flow cytometry on LS174T cells, 5 µg 3E8, detected with mouse anti-human IgG-PE.
Chain of UniProt Q01973 (Q01973 30-937 limits assumed): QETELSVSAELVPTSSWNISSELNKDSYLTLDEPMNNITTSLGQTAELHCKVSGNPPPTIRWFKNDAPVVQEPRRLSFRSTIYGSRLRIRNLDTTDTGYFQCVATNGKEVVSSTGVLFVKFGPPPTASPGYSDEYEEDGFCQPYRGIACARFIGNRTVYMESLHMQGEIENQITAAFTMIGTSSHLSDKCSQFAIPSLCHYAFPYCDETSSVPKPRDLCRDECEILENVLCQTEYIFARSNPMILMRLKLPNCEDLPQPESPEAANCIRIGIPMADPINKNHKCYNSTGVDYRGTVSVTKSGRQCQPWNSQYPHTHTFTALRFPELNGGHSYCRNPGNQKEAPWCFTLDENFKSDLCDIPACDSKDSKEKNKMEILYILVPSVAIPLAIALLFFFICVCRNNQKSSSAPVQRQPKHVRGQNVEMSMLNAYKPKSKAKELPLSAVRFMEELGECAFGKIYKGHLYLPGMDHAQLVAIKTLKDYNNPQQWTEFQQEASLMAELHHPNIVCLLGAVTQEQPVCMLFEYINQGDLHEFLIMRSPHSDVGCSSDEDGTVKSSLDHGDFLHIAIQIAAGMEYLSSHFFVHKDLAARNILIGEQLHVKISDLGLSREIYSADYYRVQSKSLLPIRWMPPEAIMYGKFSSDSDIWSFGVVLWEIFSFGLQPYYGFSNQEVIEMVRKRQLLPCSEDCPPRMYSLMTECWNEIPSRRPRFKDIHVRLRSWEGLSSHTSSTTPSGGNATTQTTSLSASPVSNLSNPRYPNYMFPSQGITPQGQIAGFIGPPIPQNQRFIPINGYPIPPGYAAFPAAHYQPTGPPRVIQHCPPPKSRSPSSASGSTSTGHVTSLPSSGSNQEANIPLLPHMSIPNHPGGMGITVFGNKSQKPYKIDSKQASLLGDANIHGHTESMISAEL

With STn specific antibody (3E8), the percent of cells stained came to 98%.
